Measurements: publication PMC5683014 (Acta Crystallographica. Section D, Structural Biology, 2017)

T1: Pekin duck egg lysozyme isoform I (Anas platyrhynchos, Pekin duck, …, strain)
T1 construct: Allelic isoform I of C-type lysozyme of Pekin duck (Anas platyrhynchos), 129 positions; Asp66 and Asn103; First of three peaks eluted from CM resin; Observed intact mass 14391.88 Da; also called DEL-I; DL-1 (Kondo); source: purified from Pekin duck egg white (CM ion exchange, gel filtration)
T1 chain: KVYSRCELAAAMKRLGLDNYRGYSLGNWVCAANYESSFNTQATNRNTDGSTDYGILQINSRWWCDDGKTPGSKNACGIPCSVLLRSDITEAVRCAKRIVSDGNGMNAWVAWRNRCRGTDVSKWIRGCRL


How the values were obtained:
Assay in all cases: BLI; BLItz (ForteBio); biotinylated Fab loaded on streptavidin biosensors (rehydrated in PBS with 0.1% BSA); lysozymes passed on and off at a range of concentrations; global fits of kinetics (BlitzPro 1.2.1.3)
HyHEL10 Fab = molecular target: HyHEL10 Fab
[1] = molecular target: T2, Pekin duck egg lysozyme isoform II (Anas platyrhynchos, Pekin duck, …, UniProt P00705, strain); details: both partners purified
T2 construct: Isoform II of C-type lysozyme of Pekin duck (Anas platyrhynchos), 129 positions; entry P00705 (Kondo DL-2) differs at residues 66 and 103; Second of three peaks eluted from CM resin; Observed intact mass 14460.98 Da; No crystal structure; also called DEL-II; DL-2 (Kondo); source: purified from Pekin duck egg white (CM ion exchange, gel filtration)

[2] = molecular target: T1, Pekin duck egg lysozyme isoform I; details: both partners purified

Row | Kd (HyHEL10 Fab) [nM] | Kd [1] [nM] | Kd [2] [nM] | Molecule
1 | > 1000 | – | – | Pekin duck egg lysozyme isoform III (enzyme)
2 | – | 34 | 40 | HyHEL10 Fab (Fab, V domains shown, HyHEL10 Fab heavy chain; HyHEL10 kappa light chain; Cloned into pCEP4; also called HyHEL10 Fab arm; source: Expi293, transiently expressed, purified from supernatant (HisTrap FF Crude)) VH: DVQLQESGPSLVKPSQTLSLTCSVTGDSITSDYWSWIRKFPGNRLEYMGYVSYSGSTYYNPSLKSRISITRDTSKNQYYLDLNSVTTEDTATYYCANWDGDYWGQGTLVTVSA VL: DIVLTQSPATLSVTPGNSVSLSCRASQSIGNNLHWYQQKSHESPRLLIKYASQSISGIPSRFSGSGSGTDFTLSINSVETEDFGMYFCQQSNSWPYTFGGGTKLEIK
